T1: human LAG-3-hFc (human, UniProt P18627 23-450)
T1 construct: also called human LAG3-Fc; Human LAG-3-Fc; not shown: human Fc
T1 sequence: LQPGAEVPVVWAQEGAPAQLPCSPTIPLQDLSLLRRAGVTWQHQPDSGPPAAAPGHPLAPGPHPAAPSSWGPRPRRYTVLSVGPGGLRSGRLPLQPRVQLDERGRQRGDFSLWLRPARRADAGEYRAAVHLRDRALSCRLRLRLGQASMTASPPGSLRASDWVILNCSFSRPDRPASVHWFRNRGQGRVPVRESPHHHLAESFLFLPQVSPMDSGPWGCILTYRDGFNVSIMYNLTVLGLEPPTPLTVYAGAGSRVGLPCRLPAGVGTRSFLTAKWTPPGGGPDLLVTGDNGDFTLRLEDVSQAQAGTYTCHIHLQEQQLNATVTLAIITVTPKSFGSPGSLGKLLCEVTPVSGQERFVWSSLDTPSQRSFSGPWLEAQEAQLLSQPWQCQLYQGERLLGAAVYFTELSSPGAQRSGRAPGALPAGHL

T2: human LAG-3 expressed on cells (human, UniProt P18627 23-525)
T2 construct: the transgene used on the cells is not tied to it by number; also called hLAG-3; 3A9.hLAG-3
T2 sequence: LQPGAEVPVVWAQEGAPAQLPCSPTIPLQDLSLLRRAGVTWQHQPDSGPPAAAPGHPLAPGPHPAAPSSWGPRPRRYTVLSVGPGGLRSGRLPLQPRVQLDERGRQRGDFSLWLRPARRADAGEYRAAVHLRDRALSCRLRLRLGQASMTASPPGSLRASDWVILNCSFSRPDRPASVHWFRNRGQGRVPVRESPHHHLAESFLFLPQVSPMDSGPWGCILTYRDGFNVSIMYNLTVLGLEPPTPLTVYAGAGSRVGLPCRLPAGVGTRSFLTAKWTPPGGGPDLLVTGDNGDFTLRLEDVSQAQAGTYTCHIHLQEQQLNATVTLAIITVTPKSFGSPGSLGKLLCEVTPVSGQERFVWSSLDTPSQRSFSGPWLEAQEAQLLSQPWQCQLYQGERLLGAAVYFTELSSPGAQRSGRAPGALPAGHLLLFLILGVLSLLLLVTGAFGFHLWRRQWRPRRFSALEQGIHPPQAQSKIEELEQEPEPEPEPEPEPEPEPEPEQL


Assays:
human LAG-3-hFc [1] = target: T1, human LAG-3-hFc; assay: SPR, Biacore T100; human LAG3-hFc captured on anti-human IgG(Fc), Nanobody as analyte; Langmuir with mass transport
Method: Kinetic analysis of Nanobodies was performed by surface plasmon resonance (SPR) technology, using the Biacore T100 instrument (GE Healthcare). HBS-EP+(0.01 M HEPES pH 7.4, 0.15 M NaCl, 3 mM EDTA, 0.05% v/v Surfactant P20) was used as running buffer and the experiments were performed at 25° C. Two flow channels of a Series S Sensor Chip CM5 were activated with EDC (200 mM)/NHS (50 mM) and anti-Human IgG(Fc) (GE Healthcare, BR100839) was injected at 5 μg/ml in the supplied immobilization buffer (10 mM sodium acetate pH5.0) to render immobilization levels of approximately 2000 R U. After immobilization, surfaces were deactivated with 1M ethanolamine/HCl (pH 8.5). The flow rate during the sensor preparation was set on 5 μL/min.
Sensorgram processing and data analysis was performed with Biacore T100 Evaluation Software Version 2.0.4 (GE Healthcare). […] Processed curves were evaluated via fitting with the model ‘Langmuir with Mass Transport’.

human LAG-3-hFc [2] = target: T1, human LAG-3-hFc; assay: flow cytometry competition: blockade of 40 nM human LAG-3-hFc binding to MHC class II on Daudi cells; PE goat anti-human IgG
Method: A Nanobody dilution series was prepared in assay buffer: HBSS/2% FBS. Prior to the experiment, Fc receptors on the Daudi cells were blocked with human Fc block (BD Pharmingen, 564220) and 5 μg/mL goat IgG (Jackson ImmunoResearch, 005-000-003) for 30 minutes at 4° C. […] 1×10⁵ cells/well were seeded in V-bottom 96-well plates and resuspended in 100 μL/well of the Nanobody/ligand dilution. After 30 minutes incubation at 4° C., the cells were washed and resuspended in 100 μL/well PE-labeled Goat anti-human IgG (Southern Biotech, 2043-09). Samples were incubated for 15 minutes at 4° C., washed, and resuspended in 100 μL/well of 5 nM TOPRO3 (LifeTechnologies, T3606) solution before analysis on FACS CANTO II (BD).

[3] = target: T2, human LAG-3 expressed on cells; assay: flow cytometry on 3A9 cells expressing human LAG-3; anti-FLAG + PE goat anti-mouse
Method: (§1) Binding to cell-expressed human LAG-3 was evaluated on human LAG-3 over-expressing 3A9 cells. A Nanobody dilution series was prepared in assay buffer: PBS/10% FBS/0.05% sodium azide. 1×10⁵ cells/well were transferred to a 96-well V-bottom plate and resuspended in 100 μL Nanobody dilution. After 30 minutes incubation at 4° C., the cells were washed with 100 μL/well assay buffer and resuspended in 100 μL/well of 1 μg/ml anti-FLAG (Sigma, F1804). […] Samples were incubated for 30 minutes at 4° C., washed, and resuspended in 100 μL/well of 5 nM TOPRO3 (LifeTechnologies, T3606) solution before analysis on FACS CANTO II (BD).

[4] = target: T3, human PD-1 expressed on cells (human, UniProt Q15116 25-288); assay: cell-based or functional assay
[5] = target: T3, human PD-1 expressed on cells; assay: flow cytometry competition: blockade of human PD-L2-hFc binding to CHO-K1 cells expressing human PD-1; PE goat anti-human IgG
Method: (§2) Ligand competition assays were performed on human PD-1 over-expressing CHO cells. A Nanobody dilution series was prepared in assay buffer: PBS/10% FBS/0.05% sodium azide. […] 2×10⁴ cells/well were seeded in V-bottom 96-well plates and resuspended in 200 μL/well of the Nanobody/ligand dilution. After 90 minutes incubation at 4° C., the cells were washed with 100 μL/well assay buffer and resuspended in 100 μL/well PE-labeled Goat anti-human IgG (Southern Biotech, 2043-09). Samples were incubated for 30 minutes at 4° C., washed, and resuspended in 100 μL/well of 5 nM TOPRO3 (LifeTechnologies, T3606) solution before analysis on FACS CANTO II (BD).

[6] = target: T3, human PD-1 expressed on cells; assay: flow cytometry competition: blockade of human PD-L1-hFc binding to CHO-K1 cells expressing human PD-1; PE goat anti-human IgG
Method: as §2

[7] = target: T3, human PD-1 expressed on cells; assay: flow cytometry on CHO-K1 cells expressing human PD-1; anti-FLAG + PE goat anti-mouse
Method: as §1, with “PD-1” for “LAG-3”, “CHO” for “3A9”, “F1804) or anti-HIS (AbD Serotec, MCA 1396).” for “F1804).”

human PD-1-hFc [8] = target: T4, human PD-1-hFc (human, UniProt Q15116 25-170); assay: SPR, Biacore T100; hPD-1-hFc immobilised on CM5 (303 RU), Nanobody as analyte; Langmuir with mass transport
T4 construct: also called hPD-1-hFc; hPD1-hFc; not shown: human Fc
Method: (§3) Kinetic analysis of the Nanobodies was performed by SPR technology, using the Biacore T100 instrument (GE Healthcare). HBS-EP+(0.01 M HEPES pH 7.4, 0.15 M NaCl, 3 mM EDTA, 0.05% v/v Surfactant P20) was used as running buffer and the experiments were performed at 25° C. Two flow channels of a Series S Sensor Chip CM5 were activated with EDC (200 mM)/NHS (50 mM). hPD-1-hFc was injected (4 times) at 5 μg/ml in suitable immobilization buffer (10 mM sodium acetate pH4.5) over one surface to render immobilization levels of 303 RU. After immobilization, surfaces were deactivated with 1M ethanolamine/HCl (pH 8.5). The flow rate during the sensor preparation was set on 5 μl/min.
(§4) After each cycle (i.e. before a new Nanobody injection step) the hPD1-hFc surfaces were regenerated with a 1 minute injection 10 mM Glycine pH1.5 at 45 μl/min. Sensorgram processing and data analysis was performed with Biacore T100 Evaluation Software Version 2.0.4 (GE Healthcare). Sensorgrams showing Nanobody binding were obtained after double referencing by subtracting 1) non-specific binding to reference flow channel and 2) HBS-EP+injection. Processed curves were evaluated via fitting with the model ‘Langmuir with Mass Transport’.

human PD-1-hFc [9] = target: T4, human PD-1-hFc; assay: SPR, Biacore T100; hPD-1-hFc immobilised on CM5, Nanobody as analyte; Langmuir with mass transport
Method: as §3, §4

T3 sequence (Q15116 25-288 limits assumed): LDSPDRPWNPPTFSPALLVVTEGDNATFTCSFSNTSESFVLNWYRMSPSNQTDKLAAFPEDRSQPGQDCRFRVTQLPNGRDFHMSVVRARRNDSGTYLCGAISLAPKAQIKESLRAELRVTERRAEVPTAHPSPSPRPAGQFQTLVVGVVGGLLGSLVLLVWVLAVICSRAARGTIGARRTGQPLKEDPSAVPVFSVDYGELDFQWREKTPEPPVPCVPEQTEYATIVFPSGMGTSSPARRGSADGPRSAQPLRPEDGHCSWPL
T4 sequence (Q15116 25-170 limits assumed): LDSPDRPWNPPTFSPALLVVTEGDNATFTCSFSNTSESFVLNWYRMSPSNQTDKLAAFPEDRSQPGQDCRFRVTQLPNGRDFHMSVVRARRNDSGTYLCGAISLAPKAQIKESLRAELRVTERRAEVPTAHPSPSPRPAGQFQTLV

Row | IC50 (read off the curve) [5] [nM] | IC50 (read off the curve) [6] [nM] | Kd (human PD-1-hFc [8]) [nM] | koff (human PD-1-hFc [8]) [s⁻¹] | kon (human PD-1-hFc [8]) [M⁻¹ s⁻¹] | Kd (human PD-1-hFc [9]) [nM] | koff (human PD-1-hFc [9]) [s⁻¹] | kon (human PD-1-hFc [9]) [M⁻¹ s⁻¹] | Binder | further results
1 | – | – | – | – | – | – | – | – | F023700842 (F0237611B09(L11V, A14P, R41P, N43K, A62S, A74S, K83R, V89L)-FLAG3-HIS6) (VHH, also called F023700842-FLAG3-HIS6) VHH: EVQLVESGGGVVQPGGSLRLSCAASGRTFSDYVMGWFRQAPGKEREFVAAISESGGRTHYADSVKGRFTISRDNSKNTLYLQMNSLRPEDTALYYCATTLLWWTSEYAPIKANDYDYWGQGTLVTVSS | Kd (human LAG-3-hFc [1]): 21 nM; koff (human LAG-3-hFc [1]): 0.019 s⁻¹; kon (human LAG-3-hFc [1]): 920000 M⁻¹ s⁻¹; IC50 (read off the curve) (human LAG-3-hFc [2]): ~30 nM; EC50 (read off the curve) [3]: ~2 nM
2 | – | – | – | – | – | – | – | – | F0237611B09-FLAG3-HIS6 (VHH, original monovalent anti-human LAG-3 Nanobody; also called F0237611B09-FLAG-His6) VHH: EVQLVESGGGLVQAGGSLRLSCAASGRTFSDYVMGWFRQARGNEREFVAAISESGGRTHYADAVKGRFTISRDNAKNTLYLQMNSLKPEDTAVYYCATTLLWWTSEYAPIKANDYDYWGQGTLVTVSS | IC50 (read off the curve) (human LAG-3-hFc [2]): ~20 nM; EC50 (read off the curve) [3]: ~2 nM
3 | ~0.6 | ~0.6 | – | – | – | – | – | – | F023700706 (1PD102C12 (L11V, A14P, A74S, K83R, I89L)-FLAG3-HIS6) (VHH, also called SO 1PD102C12 monomer) VHH: EVQLVESGGGVVQPGGSLRLSCAASGSIASIHAMGWFRQAPGKEREFVAVITWSGGITYYADSVKGRFTISRDNSKNTVYLQMNSLRPEDTALYYCAGDKHQSSWYDYWGQGTLVTVSS | EC50 (read off the curve), IL-2 promoter luciferase RLU [4]: ~0.9 nM; EC50 (read off the curve) [7]: ~0.9 nM
4 | ~0.9 | ~1 | – | – | – | – | – | – | F023701190 (1PD102C12 (E1D, L11V, A14P, W52aV, A74S, K83R, I89L, W100aF)-HIS6) (VHH, monovalent anti-human PD-1 Nanobody variant; also called Enhanced SO 1PD102C12 monomer; not shown: C-terminal HIS6 tag) VHH: DVQLVESGGGVVQPGGSLRLSCAASGSIASIHAMGWFRQAPGKEREFVAVITVSGGITYYADSVKGRFTISRDNSKNTVYLQMNSLRPEDTALYYCAGDKHQSSFYDYWGQGTLVTVSS | –
5 | ~0.9 | ~1 | 1.3 | 0.0032 | 2.5e+06 | 1.3 | 0.0032 | 2.5e+06 | F023701192 (1PD102C12 (E1D, L11V, A14P, W52aV, N73Q, A74S, K83R, I89L, W100aF)-HIS6) (VHH, monovalent anti-human PD-1 Nanobody variant; not shown: C-terminal HIS6 tag) VHH: DVQLVESGGGVVQPGGSLRLSCAASGSIASIHAMGWFRQAPGKEREFVAVITVSGGITYYADSVKGRFTISRDQSKNTVYLQMNSLRPEDTALYYCAGDKHQSSFYDYWGQGTLVTVSS | –
6 | ~0.3 | ~0.3 | – | – | – | – | – | – | F023700275 (1PD102C12(A14P, A74S, K83R)-FLAG3-HIS6) (VHH, monovalent anti-human PD-1 Nanobody, parent of F023700706) VHH: EVQLVESGGGLVQPGGSLRLSCAASGSIASIHAMGWFRQAPGKEREFVAVITWSGGITYYADSVKGRFTISRDNSKNTVYLQMNSLRPEDTAIYYCAGDKHQSSWYDYWGQGTLVTVSS | EC50 (read off the curve) [7]: ~0.9 nM
7 | ~0.9 | ~1 | 2.4 | 0.0075 | 3.2e+06 | 2.4 | 0.0075 | 3.2e+06 | F023701193 (1PD102C12 (E1D, L11V, A14P, W52aV, N73P, A74S, K83R, I89L, W100aF)-HIS6) (VHH, monovalent anti-human PD-1 Nanobody variant; not shown: C-terminal HIS6 tag) VHH: DVQLVESGGGVVQPGGSLRLSCAASGSIASIHAMGWFRQAPGKEREFVAVITVSGGITYYADSVKGRFTISRDPSKNTVYLQMNSLRPEDTALYYCAGDKHQSSFYDYWGQGTLVTVSS | –
8 | ~1 | ~1 | 0.29 | 0.00059 | 2e+06 | 0.29 | 0.00059 | 2e+06 | F023700929 (1PD102C12 (L11V, A14P, A74S, K83R, I89L)-HIS6) (VHH, not shown: C-terminal HIS6 tag) VHH: EVQLVESGGGVVQPGGSLRLSCAASGSIASIHAMGWFRQAPGKEREFVAVITWSGGITYYADSVKGRFTISRDNSKNTVYLQMNSLRPEDTALYYCAGDKHQSSWYDYWGQGTLVTVSS | –

Source: US20260184783A1 (Merck Sharp & Dohme, published 2026)
